Laboratory results reported in the supplement of paper PMC10567573.

B1: BTBD10 (parent)
chain: DRKLHSRPRKLYKHSSTSSRIAKG

Variants of: B1
Assay: protein stability index of a GFP-peptide fusion (GPS, HEK-293T) (PSI 1-6); higher = more stable
Conditions: c terminus: a fixed tail appended
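Also: lentivirally expressed fusions sorted by FACS into six bins by GFP to DsRed ratio, PSI derived from sequencing read proportions per bin multiplied by bin number.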

Variant	protein stability index
DRKLHSRPRKLYKHSSTLSRIAKG [S18L]	4.3
DRKLHSRPRKLYKHSSTMSRIAKG [S18M]	3.63
DRKLHSRPRKLYKHSSTNSRIAKG [S18N]	4.36
DRKLHSRPRKLYKHSSTPSRIAKG [S18P]	3.93
DRKLHSRPRKLYKHSSTQSRIAKG [S18Q]	3.95
DRKLHSRPRKLYKHSSTRSRIAKG [S18R]	3.63
DRKLHSRPRKLYKHSSTTSRIAKG [S18T]	3.65
DRKLHSRPRKLYKHSSTVSRIAKG [S18V]	4.07
DRKLHSRPRKLYKHSSTWSRIAKG [S18W]	2.71
DRKLHSRPRKLYKHSSTYSRIAKG [S18Y]	2.88
DRKLHSRPRKLYKHSSTSARIAKG [S19A]	3.55
DRKLHSRPRKLYKHSSTSCRIAKG [S19C]	3.62
DRKLHSRPRKLYKHSSTSDRIAKG [S19D]	3.93
DRKLHSRPRKLYKHSSTSERIAKG [S19E]	4.42
DRKLHSRPRKLYKHSSTSFRIAKG [S19F]	3.23
DRKLHSRPRKLYKHSSTSGRIAKG [S19G]	3.57
DRKLHSRPRKLYKHSSTSHRIAKG [S19H]	3.5
DRKLHSRPRKLYKHSSTSIRIAKG [S19I]	3.7
DRKLHSRPRKLYKHSSTSKRIAKG [S19K]	4.18
DRKLHSRPRKLYKHSSTSLRIAKG [S19L]	3.45
DRKLHSRPRKLYKHSSTSMRIAKG [S19M]	3.07

Variant	protein stability index
DRKLHSRPRKLYKHSSTSNRIAKG [S19N]	3.58
DRKLHSRPRKLYKHSSTSPRIAKG [S19P]	4.34
DRKLHSRPRKLYKHSSTSQRIAKG [S19Q]	3.63
DRKLHSRPRKLYKHSSTSRRIAKG [S19R]	4.53
DRKLHSRPRKLYKHSSTSTRIAKG [S19T]	4.4
DRKLHSRPRKLYKHSSTSVRIAKG [S19V]	3.65
DRKLHSRPRKLYKHSSTSWRIAKG [S19W]	3.22
DRKLHSRPRKLYKHSSTSYRIAKG [S19Y]	2.62
DRKLHSRPRKLYKHSSTSSAIAKG [R20A]	3.9
DRKLHSRPRKLYKHSSTSSCIAKG [R20C]	3.39
DRKLHSRPRKLYKHSSTSSDIAKG [R20D]	4.28
DRKLHSRPRKLYKHSSTSSEIAKG [R20E]	4.04
DRKLHSRPRKLYKHSSTSSFIAKG [R20F]	3.6
DRKLHSRPRKLYKHSSTSSGIAKG [R20G]	3.62
DRKLHSRPRKLYKHSSTSSHIAKG [R20H]	4.24
DRKLHSRPRKLYKHSSTSSIIAKG [R20I]	3.66
DRKLHSRPRKLYKHSSTSSKIAKG [R20K]	3.92
DRKLHSRPRKLYKHSSTSSLIAKG [R20L]	3.94
DRKLHSRPRKLYKHSSTSSMIAKG [R20M]	4.06
DRKLHSRPRKLYKHSSTSSNIAKG [R20N]	4.21
DRKLHSRPRKLYKHSSTSSPIAKG [R20P]	3.6

Variant	protein stability index
DRKLHSRPRKLYKHSSTSSQIAKG [R20Q]	4.2
DRKLHSRPRKLYKHSSTSSSIAKG [R20S]	3.85
DRKLHSRPRKLYKHSSTSSTIAKG [R20T]	4.13
DRKLHSRPRKLYKHSSTSSVIAKG [R20V]	3.96
DRKLHSRPRKLYKHSSTSSWIAKG [R20W]	2.97
DRKLHSRPRKLYKHSSTSSYIAKG [R20Y]	3.94
DRKLHSRPRKLYKHSSTSSRAAKG [I21A]	3.5
DRKLHSRPRKLYKHSSTSSRCAKG [I21C]	3.88
DRKLHSRPRKLYKHSSTSSRDAKG [I21D]	4.6
DRKLHSRPRKLYKHSSTSSREAKG [I21E]	4.33
DRKLHSRPRKLYKHSSTSSRFAKG [I21F]	3.65
DRKLHSRPRKLYKHSSTSSRGAKG [I21G]	4.71
DRKLHSRPRKLYKHSSTSSRHAKG [I21H]	4.04
DRKLHSRPRKLYKHSSTSSRKAKG [I21K]	4.28
DRKLHSRPRKLYKHSSTSSRLAKG [I21L]	3.96
DRKLHSRPRKLYKHSSTSSRMAKG [I21M]	3.77
DRKLHSRPRKLYKHSSTSSRNAKG [I21N]	4.03
DRKLHSRPRKLYKHSSTSSRPAKG [I21P]	4.16
DRKLHSRPRKLYKHSSTSSRQAKG [I21Q]	3.36
DRKLHSRPRKLYKHSSTSSRRAKG [I21R]	3.95
